Data taken from the RNAGym collection of RNA variant scans (doi:10.1073/pnas.2313332121).

B1: TPR t1 (parent)
chain: GACCAAUCUGCCCUCAGAGCUCGAGAACAUCUUCGGAUGCAGAGGAGGCAGGCUUCGGUGGCGCGAUAGCGCCAACGUCCUCAACCUCCAAUGCAUCCCACCACAUGAUGAUGCCUGAAGAGCCUUGGUUUUUUG

Variants of: B1
Test: polymerase ribozyme fitness, log enrichment relative to wild type (log ratio); higher = more active; in vitro selection for triplet polymerase activity
Method in brief: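 Each subunit of a heterodimeric triplet polymerase ribozyme was represented by a PCR-built, transcribed mutant library that underwent triplicate single-round in vitro selection with frozen incubation at −7 °C. Extended constructs were recovered by gel excision, streptavidin-bead capture and RT-PCR, and Illumina sequencing of input and output libraries kept genotypes with ≥10 input reads and ≥1 read per output. Fitness is the logarithm of genotype enrichment relative to wild-type enrichment, from inverse-variance-weighted replicate averages, with a logarithm base of 2.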

First: A6U C20A G69U C85A
Second: U7A C49U G71U
The “polymerase ribozyme fitness (log ratio)” value of the first is lower: -4.42 for the first, -0.851 for the second.

Compared with A6U U131A, U7A G17U A111C G135U is lower in “polymerase ribozyme fitness (log ratio)” value: 0.0258 for the first, -3.91 for the second.

First: A6U G69U G113A
Second: A6U C40U G57C G61U A100C G113A
The “polymerase ribozyme fitness (log ratio)” value of the first is higher: -0.642 for the first, -3.51 for the second.

Compared with A6G G58A U59C, A6U G48U C53A is higher in “polymerase ribozyme fitness (log ratio)” value: -1.72 for the first, -0.649 for the second.

First: A6U G36C G44A G77U C123G
Second: A6U G45U
The “polymerase ribozyme fitness (log ratio)” value of the first is higher: -0.241 for the first, -1.59 for the second.

Going from A6U C11U C80U C102U to U7A G10U G93A, the “polymerase ribozyme fitness (log ratio)” value rises from -3.5 to -0.792.

First: A6U A121G
Second: A6U A29G G71A A83G C89A U109C G120C C123G U132A
The “polymerase ribozyme fitness (log ratio)” value of the first is higher: 2.04 for the first, -6.04 for the second.

Going from A6U C123U to A6U C53U C88U, the “polymerase ribozyme fitness (log ratio)” value falls from 1.41 to -0.366.

First: A6U G60A U81A C99U
Second: U7A C11G G44U A50G C94U U96A G117A
The “polymerase ribozyme fitness (log ratio)” value of the first is lower: -5.5 for the first, -1.92 for the second.

Going from U7A C56A C94U to A6U C53A C97U G113A, the “polymerase ribozyme fitness (log ratio)” value falls from -0.558 to -1.91.

Compared with A6U C8U C70A C101G, U7A C8A C40U C79G C102U G113C U129G U130A is lower in “polymerase ribozyme fitness (log ratio)” value: -3.42 for the first, -7.42 for the second.

Going from A6U U92A to U7A G36A A43U U54A C101U U112A, the “polymerase ribozyme fitness (log ratio)” value falls from -2.82 to -6.85.

First: U7A C13U C15U G44U G77U
Second: A6U G45C C72G C101U G110C
The “polymerase ribozyme fitness (log ratio)” value of the first is higher: -2.35 for the first, -4.94 for the second.

A6U C53G C114A U131C and A6U G44U U87A A91C C97U are within 0.2 log units of each other in “polymerase ribozyme fitness (log ratio)” value: -1.89 for the first, -1.94 for the second.

U7A A16C G63A A121U and A6U A46C are within 0.2 log units of each other in “polymerase ribozyme fitness (log ratio)” value: -0.146 for the first, -0.0914 for the second.

Compared with A6U G10C, A6U G10A is higher in “polymerase ribozyme fitness (log ratio)” value: -0.4 for the first, 0.406 for the second.

First: A6U U112A
Second: A6U A66G C85G
The “polymerase ribozyme fitness (log ratio)” value of the first is higher: 0.759 for the first, -2.09 for the second.

Compared with A6U G48U C72U C94U A111C, U7A C22U G39A G44U C53U C56G G63C C124A U125A is lower in “polymerase ribozyme fitness (log ratio)” value: -0.448 for the first, -5.65 for the second.

First: U7A C97A C101U U112C
Second: A6U G36A G71U
The “polymerase ribozyme fitness (log ratio)” value of the first is lower: -2.6 for the first, -0.709 for the second.

First: A6U G57U G61A U87C C99A C124A
Second: A6U A29U A66C C115G G117U
The “polymerase ribozyme fitness (log ratio)” value of the first is higher: -5.7 for the first, -6.19 for the second.

A6U C13A A16U C49A G63A C101A and A6U C34U are within 0.2 log units of each other in “polymerase ribozyme fitness (log ratio)” value: -4.21 for the first, -4.08 for the second.

First: U7A C12G A27C G122A U130C
Second: A6G U7C A50U C80G U112G
The “polymerase ribozyme fitness (log ratio)” value of the first is higher: -2.81 for the first, -4.92 for the second.

First: U7A G36U G45U C86U
Second: A6G U78C C102A C124A U130A
The “polymerase ribozyme fitness (log ratio)” value of the first is lower: -3.34 for the first, -1.35 for the second.

First: A6U C97U
Second: A6U C97A
The “polymerase ribozyme fitness (log ratio)” value of the first is higher: -0.46 for the first, -3.55 for the second.

First: A6U G47A C53U C56A U59A A83U
Second: A6U C86U
The “polymerase ribozyme fitness (log ratio)” value of the first is lower: -1.88 for the first, -0.389 for the second.

Compared with U7A C28G, U7A G10A C28G C73A U109A A119G C123G is lower in “polymerase ribozyme fitness (log ratio)” value: -2.71 for the first, -5.03 for the second.

First: A6U G52A
Second: A6U G52U
The “polymerase ribozyme fitness (log ratio)” value of the first is lower: -2.05 for the first, -1.52 for the second.

Compared with A6G G47U C64U C99A G120A, A6U C15G A37G is higher in “polymerase ribozyme fitness (log ratio)” value: -5.98 for the first, -1.93 for the second.

First: A6U C8G G17A G48C C53A U126C
Second: U7A C22G C40U G42U C62G
The “polymerase ribozyme fitness (log ratio)” value of the first is higher: -4.16 for the first, -6.04 for the second.

First: U7A C79G
Second: A6U G61U G117A
The “polymerase ribozyme fitness (log ratio)” value of the first is lower: -1.03 for the first, -0.538 for the second.

Going from A6U U30C G39U C97U C104U to U7A C20G G25C C34G A43C G52A G113C, the “polymerase ribozyme fitness (log ratio)” value falls from -4 to -7.56.

Compared with A6U G48U C72A, A6U U33A is lower in “polymerase ribozyme fitness (log ratio)” value: 0.271 for the first, -4.02 for the second.

First: A6U A16G G63U C89U
Second: A6U C89U
The “polymerase ribozyme fitness (log ratio)” value of the first is lower: -3.25 for the first, -0.0502 for the second.

Compared with U7A A16G U55G G61C C82U, A6U U9G C40G G60U C80U U126C U131A is lower in “polymerase ribozyme fitness (log ratio)” value: -1.41 for the first, -3.72 for the second.

Compared with U7A A27U A50U A74C C101U, A6U A41G U81A is higher in “polymerase ribozyme fitness (log ratio)” value: -4.66 for the first, -1.63 for the second.

Going from U7A C49U C53U U59A C70U C76A to A6U A103G, the “polymerase ribozyme fitness (log ratio)” value falls from -2.44 to -4.63.

Compared with A6U C22A C49U, A6U G48U A105U is higher in “polymerase ribozyme fitness (log ratio)” value: -4.97 for the first, -2.38 for the second.

First: A6G U54A G93A
Second: A6U G48U C64U U81G
The “polymerase ribozyme fitness (log ratio)” value of the first is higher: -0.596 for the first, -4.27 for the second.

Going from A6G U21C C114A to A6U C62U, the “polymerase ribozyme fitness (log ratio)” value rises from -0.942 to 0.19.

A6G U9A C34U and A6U G107U are within 0.2 log units of each other in “polymerase ribozyme fitness (log ratio)” value: -3.96 for the first, -3.94 for the second.

First: A6U C49U G60A C94G G113A
Second: U7A A50U
The “polymerase ribozyme fitness (log ratio)” value of the first is lower: -3.92 for the first, -0.856 for the second.

First: A6U A105C
Second: A6U C85G
The “polymerase ribozyme fitness (log ratio)” value of the first is lower: -1.94 for the first, -1.65 for the second.
